Results from publication PMC12607895, “CD46 is a cellular receptor for species D human adenovirus” (mBio, 2025).

Molecular target: HAdV-C5 virion (human adenovirus C5 (HAdV-C5), UniProt P04133 1-952; P12538 1-571; P11818 1-581, whole virion; only the major capsid proteins listed, minor/core proteins and DNA not named)
Test: SPR; Biacore T200; CD46 or CAR amine-coupled to a CM5 chip (2,390-2,640 RU CD46, 2,380-2,870 RU CAR); whole virions as analyte, twofold series 50-12.5 µg/mL, 120 s at 30 µL/min; 25°C, HBS-EP+ (10 mM HEPES, 150 mM NaCl, 3 mM EDTA, 0.005% P20, pH 7.4); performed once
Details: both partners purified

B1: coxsackievirus and adenovirus receptor (CAR) (receptor)
chain: LSITTPEEMIEKAKGETAYLPCKFTLSPEDQGPLDIEWLISPADNQKVDQVIILYSGDKIYDDYYPDLKGRVHFTSNDLKSGDASINVTNLQLSDIGTYQCKVKKAPGVANKKIHLVVLVKPSGARCYVDGSEEIGSDFKIKCEPKEGSLPLQYEWQKLSDSQKMPTSWLAEMTSSVISVKNASSEYSGTYSCTVRNRVGSDQCLLRLNVVPPSNKAGLIAGAIIGTLLALALIGLIIFCCRKKRREEKYEKEVHHDIREDVPPPKSRTSTARSYIGSNHSSLGSMSPSNMEGYSKTQYNQVPSEDFERTPQSPTLPPAKVAAPNLSRMGAIPVMIPAQSKDGSIV
notes: coxsackievirus and adenovirus receptor (CAR), coupled to the CM5 sensor chip; also called CXADR
  Kd: 1.1 pM
